Reference: patent US20150344570A1 (published 2015)

T1: FcγRIIa H (human, UniProt P12318 34-217)
T1 construct: extracellular domain; also called FcγRIIa type H; 2aH; not shown: His tag at the C terminus
T1 sequence (looked up): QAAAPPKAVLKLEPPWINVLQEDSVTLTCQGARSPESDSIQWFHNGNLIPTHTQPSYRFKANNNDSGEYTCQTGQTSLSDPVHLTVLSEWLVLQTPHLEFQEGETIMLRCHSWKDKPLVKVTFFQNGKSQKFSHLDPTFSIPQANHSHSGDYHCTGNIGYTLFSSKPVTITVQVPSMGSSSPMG

T2: FcγRIIb (human, UniProt P31994 43-217)
T2 construct: extracellular domain; also called 2b; not shown: His tag at the C terminus
T2 sequence (looked up): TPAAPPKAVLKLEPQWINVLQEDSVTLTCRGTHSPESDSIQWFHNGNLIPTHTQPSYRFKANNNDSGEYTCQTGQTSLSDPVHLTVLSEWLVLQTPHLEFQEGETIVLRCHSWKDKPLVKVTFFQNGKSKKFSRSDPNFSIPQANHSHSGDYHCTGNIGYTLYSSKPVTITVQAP

B1: GpH7-A5/GpH7-B3 variant G237_11K/GpL16-k0 (antibody, human IgG1, kappa)
heavy 1: not shown
heavy 2: not shown
light: DIVMTQSPLSLPVTPGEPASISCQASESLVHSNRNTYLHWYLQKPGQSPQLLIYKVSNRFSGVPDRFSGSGSGTDFTLKISRVEAEDVGVYYCSQNTHVPPTFGQGTKVEIERTVAAPSVFIFPPSDEQLKSGTASVVCLLNNFYPREAKVQWKVDNALQSGNSQESVTEQDSKDSTYSLSSTLTLSKADYEKHKVYACEVTHQGLSSPVTKSFNRGEC
notes: Heterodimerized anti-glypican-3 IgG1; mutation only in the GpH7-B3 H chain; also called He Ab
B2: GpH7-A5/GpH7-B3 variant G236_02A/GpL16-k0 (antibody, human IgG1, kappa)
heavy 1: not shown
heavy 2: not shown
light: B1 light
notes: Heterodimerized IgG1; mutation in the GpH7-B3 chain only; also called He Ab
B3: GpH7-A5/GpH7-B3 variant G236_15Y/GpL16-k0 (antibody, human IgG1, kappa)
heavy 1: not shown
heavy 2: not shown
light: B1 light
notes: as for B2
B4: GpH7-A5/GpH7-B3 variant L235_13S/GpL16-k0 (antibody, human IgG1, kappa)
heavy 1: not shown
heavy 2: not shown
light: B1 light
notes: as for B2
B5: GpH7-A5/GpH7-B3 variant L235_18N/GpL16-k0 (antibody, human IgG1, kappa)
heavy 1: not shown
heavy 2: not shown
light: B1 light
notes: as for B2
B6: GpH7-A5/GpH7-B3 variant L235_12R/GpL16-k0 (antibody, human IgG1, kappa)
heavy 1: not shown
heavy 2: not shown
light: B1 light
notes: as for B2
B7: GpH7-A5/GpH7-B3 variant L234_13S/GpL16-k0 (antibody, human IgG1, kappa)
heavy 1: not shown
heavy 2: not shown
light: B1 light
notes: as for B2
B8: GpH7-A5/GpH7-B3 variant L235_19Q/GpL16-k0 (antibody, human IgG1, kappa)
heavy 1: not shown
heavy 2: not shown
light: B1 light
notes: as for B2
B9: GpH7-A5/GpH7-B3 variant G236_08L/GpL16-k0 (antibody, human IgG1, kappa)
heavy 1: not shown
heavy 2: not shown
light: B1 light
notes: as for B2
B10: GpH7-A5/GpH7-B3 variant G236_04F/GpL16-k0 (antibody, human IgG1, kappa)
heavy 1: not shown
heavy 2: not shown
light: B1 light
notes: as for B2
B11: GpH7-A5/GpH7-B3 variant L234_14T/GpL16-k0 (antibody, human IgG1, kappa)
heavy 1: not shown
heavy 2: not shown
light: B1 light
notes: as for B2
B12: GpH7-A5/GpH7-B3 variant L234_15Y/GpL16-k0 (antibody, human IgG1, kappa)
heavy 1: not shown
heavy 2: not shown
light: B1 light
notes: as for B2
B13: GpH7-A5/GpH7-B3 variant L234_12R/GpL16-k0 (antibody, human IgG1, kappa)
heavy 1: not shown
heavy 2: not shown
light: B1 light
notes: as for B2
B14: GpH7-A5/GpH7-B3 variant G236_14T/GpL16-k0 (antibody, human IgG1, kappa)
heavy 1: not shown
heavy 2: not shown
light: B1 light
notes: as for B2
B15: GpH7-A5/GpH7-B3 variant G237_12R/GpL16-k0 (antibody, human IgG1, kappa)
heavy 1: not shown
heavy 2: not shown
light: B1 light
notes: as for B1
B16: GpH7-A5/GpH7-B3 variant G236_06M/GpL16-k0 (antibody, human IgG1, kappa)
heavy 1: not shown
heavy 2: not shown
light: B1 light
notes: as for B2
B17: GpH7-A5/GpH7-B3 variant L234_16H/GpL16-k0 (antibody, human IgG1, kappa)
heavy 1: not shown
heavy 2: not shown
light: B1 light
notes: as for B2
B18: GpH7-A5/GpH7-B3 variant L235_14T/GpL16-k0 (antibody, human IgG1, kappa)
heavy 1: not shown
heavy 2: not shown
light: B1 light
notes: as for B2
B19: GpH7-A5/GpH7-B3 variant G236_12R/GpL16-k0 (antibody, human IgG1, kappa)
heavy 1: not shown
heavy 2: not shown
light: B1 light
notes: as for B2
B20: GpH7-A5/GpH7-B3 variant G236_07I/GpL16-k0 (antibody, human IgG1, kappa)
heavy 1: not shown
heavy 2: not shown
light: B1 light
notes: as for B2
B21: GpH7-A5/GpH7-B3 variant L234_05P/GpL16-k0 (antibody, human IgG1, kappa)
heavy 1: not shown
heavy 2: not shown
light: B1 light
notes: as for B2
B22: GpH7-A5/GpH7-B3 variant L234_11K/GpL16-k0 (antibody, human IgG1, kappa)
heavy 1: not shown
heavy 2: not shown
light: B1 light
notes: as for B2
B23: GpH7-A5/GpH7-B3 variant L235_11K/GpL16-k0 (antibody, human IgG1, kappa)
heavy 1: not shown
heavy 2: not shown
light: B1 light
notes: as for B2
B24: GpH7-A5/GpH7-B3 variant L234_04F/GpL16-k0 (antibody, human IgG1, kappa)
heavy 1: not shown
heavy 2: not shown
light: B1 light
notes: as for B2
B25: GpH7-A5/GpH7-B3 variant L234_01G/GpL16-k0 (antibody, human IgG1, kappa)
heavy 1: not shown
heavy 2: not shown
light: B1 light
notes: as for B2
B26: GpH7-A5/GpH7-B3 variant L234_19Q/GpL16-k0 (antibody, human IgG1, kappa)
heavy 1: not shown
heavy 2: not shown
light: B1 light
notes: as for B2
B27: GpH7-A5/GpH7-B3 variant L235_01G/GpL16-k0 (antibody, human IgG1, kappa)
heavy 1: not shown
heavy 2: not shown
light: B1 light
notes: as for B2
B28: GpH7-A5/GpH7-B3 variant L235_03V/GpL16-k0 (antibody, human IgG1, kappa)
heavy 1: not shown
heavy 2: not shown
light: B1 light
notes: as for B2
B29: GpH7-A5/GpH7-B3 variant L234_02A/GpL16-k0 (antibody, human IgG1, kappa)
heavy 1: not shown
heavy 2: not shown
light: B1 light
notes: as for B2
B30: GpH7-A5/GpH7-B3 variant G236_13S/GpL16-k0 (antibody, human IgG1, kappa)
heavy 1: not shown
heavy 2: not shown
light: B1 light
notes: as for B2
B31: GpH7-A5/GpH7-B3 variant G236_03V/GpL16-k0 (antibody, human IgG1, kappa)
heavy 1: not shown
heavy 2: not shown
light: B1 light
notes: as for B2
B32: GpH7-A5/GpH7-B3 variant G236_05P/GpL16-k0 (antibody, human IgG1, kappa)
heavy 1: not shown
heavy 2: not shown
light: B1 light
notes: as for B2

What was measured:
[1] = target: T3, FcγRIa extracellular domain with C-terminal His tag (human, UniProt P12314 16-292); experiment: SPR; He/Con_1a divided by He/Con_2b (FcγRIa against FcγRIIb)
T3 construct: extracellular domain; also called FcgRI; CD64; not shown: His tag at the C terminus

[2] = target: T3, FcγRIa extracellular domain with …; experiment: SPR (Biacore), antibody captured, FcγR analyte; relative to GpH7-A5/GpH7-B3/GpL16-k0 = 100
[3] = target: T1, FcγRIIa H; experiment: SPR (Biacore), antibody captured, FcγR as analyte; binding relative to GpH7-A5/GpH7-B3/GpL16-k0 = 100
Procedure: (§1) The heterodimerized antibodies He Abs in which one of the H chains was introduced with an alteration were assayed for their binding activities to each activating FcγR and inhibitory FcγR according to the method described in Example 4. […] The activating FcγRs in FIGS. 26, 27, 28, and 29 are FcγRIa, FcγRIIa (R), FcγRIIa (H), and FcγRIIIa, respectively.
(§2) Analysis of interaction between objective antibody and the FcγR was carried out using Biacore T100 (GE Healthcare). HBS-EP+ (GE Healthcare) was used as the running buffer, and the measurement temperature was set to 25° C. Chips produced by immobilizing the antigen peptide by the amine coupling method to a Series S Sencor Chip CM5 (GE Healthcare), or alternatively, chips produced by allowing preliminarily biotinylated antigen peptides to interact with and immobilize onto a Series S Sensor Chip SA (certified) (GE Healthcare) were used. Antibodies of interest were captured onto an antigen peptide-immobilized chip, and allowed to interact to each FcγR diluted with running buffer. To regenerate and repeatedly use the chip, the antibodies captured on the chip were washed off by reacting 10 mM glycine-HCl, pH 1.5.

[4] = target: T2, FcγRIIb; experiment: as above
Procedure: as §1, §2

[5] = target: T1, FcγRIIa H; experiment: SPR (Biacore); He/Con_2aH divided by He/Con_2b (FcγRIIa H over FcγRIIb)

T3 sequence (P12314 16-292): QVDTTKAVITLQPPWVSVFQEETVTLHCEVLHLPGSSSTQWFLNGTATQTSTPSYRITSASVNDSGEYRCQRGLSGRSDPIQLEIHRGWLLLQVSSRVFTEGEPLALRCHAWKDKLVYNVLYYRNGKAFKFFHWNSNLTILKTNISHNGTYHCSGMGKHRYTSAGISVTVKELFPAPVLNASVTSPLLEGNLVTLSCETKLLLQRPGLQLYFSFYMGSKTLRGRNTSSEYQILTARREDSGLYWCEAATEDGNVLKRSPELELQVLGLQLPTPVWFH

Row | Binder | He_1a/2b (Ia/IIb) [1] [ratio] | He/Con_1a [2] | He/Con_2aH [3] | He/Con_2b [4] | He_2aH/2b (IIaH/IIb) [5] [ratio]
1 | B1 | 7.05 | 63.3 % of HeCon Ab |  |  | 
2 | B2 |  |  | 139 % of control | 96.5 % of control | 1.44
3 | B3 |  |  | 136 % of control | 39.5 % of control | 3.45
4 | B4 |  |  | 66.1 % of control | 48.2 % of control | 1.37
5 | B5 |  |  | 66.1 % of control | 54.9 % of control | 1.2
6 | B6 |  |  | 30.3 % of control |  | 3.16
7 | B7 |  |  | 80.4 % of control | 59.3 % of control | 1.36
8 | B8 |  |  | 62 % of control | 42.6 % of control | 1.45
9 | B9 |  |  | 75.8 % of control | 26.8 % of control | 2.83
10 | B10 |  |  | 118 % of control | 39.3 % of control | 3
11 | B11 |  |  | 78.1 % of control | 62.5 % of control | 1.25
12 | B12 |  |  | 120 % of control | 96.3 % of control | 1.25
13 | B13 |  |  | 47.7 % of control | 18.9 % of control | 2.53
14 | B14 |  |  | 103 % of control | 57.8 % of control | 1.79
15 | B15 | 6.71 | 65.8 % of HeCon Ab |  |  | 
16 | B16 |  |  | 85.7 % of control | 45.5 % of control | 1.88

Row | Binder | He_1a/2b (Ia/IIb) [1] [ratio] | He/Con_1a [2] | He/Con_2aH [3] | He/Con_2b [4] | He_2aH/2b (IIaH/IIb) [5] [ratio]
17 | B17 |  |  | 87.3 % of control | 59.4 % of control | 1.47
18 | B18 |  |  | 71.5 % of control | 46.8 % of control | 1.53
19 | B19 |  |  | 34.2 % of control | 6.8 % of control | 5.04
20 | B20 |  |  | 115 % of control | 31 % of control | 3.72
21 | B21 |  |  | 93.5 % of control | 72.9 % of control | 1.28
22 | B22 |  |  | 40.8 % of control | 16.2 % of control | 2.52
23 | B23 |  |  | 22.7 % of control | 6.3 % of control | 3.61
24 | B24 |  |  | 120 % of control | 99.8 % of control | 1.2
25 | B25 |  |  | 75.6 % of control | 50.7 % of control | 1.49
26 | B26 |  |  | 79.2 % of control | 60.3 % of control | 1.31
27 | B27 |  |  | 54.1 % of control | 35.4 % of control | 1.53
28 | B28 |  |  | 85.3 % of control | 66.4 % of control | 1.28
29 | B29 |  |  | 81 % of control | 64.9 % of control | 1.25
30 | B30 |  |  | 135 % of control | 96.7 % of control | 1.39
31 | B31 |  |  | 119 % of control | 35.3 % of control | 3.39
32 | B32 |  |  | 63.5 % of control | 19 % of control | 3.34
